In PMC9646744, “Structural dynamics of AAA + ATPase Drg1 and mechanism of benzo-diazaborine inhibition” (Nature Communications, 2022):
Numbering of substitutions follows the chain as printed. Numbers in names are those of the source.

B1: Drg1 (wild type, S. cerevisiae) (enzyme, UniProt P32794 1-780, looked up)
chain: MAPKSSSSGSKKKSSASSNSADAKASKFKLPAEFITRPHPSKDHGKETCTAYIHPNVLSSLEINPGSFCTVGKIGENGILVIARAGDEEVHPVNVITLSTTIRSVGNLILGDRLELKKAQVQPPYATKVTVGSLQGYNILECMEEKVIQKLLDDSGVIMPGMIFQNLKTKAGDESIDVVITDASDDSLPDVSQLDLNMDDMYGGLDNLFYLSPPFIFRKGSTHITFSKETQANRKYNLPEPLSYAAVGGLDKEIESLKSAIEIPLHQPTLFSSFGVSPPRGILLHGPPGTGKTMLLRVVANTSNAHVLTINGPSIVSKYLGETEAALRDIFNEARKYQPSIIFIDEIDSIAPNRANDDSGEVESRVVATLLTLMDGMGAAGKVVVIAATNRPNSVDPALRRPGRFDQEVEIGIPDVDARFDILTKQFSRMSSDRHVLDSEAIKYIASKTHGYVGADLTALCRESVMKTIQRGLGTDANIDKFSLKVTLKDVESAMVDIRPSAMREIFLEMPKVYWSDIGGQEELKTKMKEMIQLPLEASETFARLGISAPKGVLLYGPPGCSKTLTAKALATESGINFLAVKGPEIFNKYVGESERAIREIFRKARSAAPSIIFFDEIDALSPDRDGSSTSAANHVLTSLLNEIDGVEELKGVVIVAATNRPDEIDAALLRPGRLDRHIYVGPPDVNARLEILKKCTKKFNTEESGVDLHELADRTEGYSGAEVVLLCQEAGLAAIMEDLDVAKVELRHFEKAFKGIARGITPEMLSYYEEFALRSGSSS
notes: Drg1, type II AAA+ ATPase encoded by AFG2, S. cerevisiae (genome of strain BY4741), full length; Hexamers assembled in vitro with ADP, AMPPNP, ADP/AMPPNP/benzo-diazaborine or ATP/benzo-diazaborine; stabilised by GraFix (glutaraldehyde) for cryo-EM; also called Drg1^WT; Drg1 hexamer; source: E. coli Transetta (DE3), purified (Ni-NTA, TEV cleavage, Mono Q, size-exclusion chromatography); not shown: …
B2: Drg1 E346Q/E617Q double mutant (Walker B motifs of D1 and D2) (enzyme, S. cerevisiae, UniProt P32794 1-780, looked up)
chain: B1 chain with E346Q, E617Q
notes: Drg1, type II AAA+ ATPase encoded by AFG2, S. cerevisiae, full length, with the Walker B mutations E346Q and E617Q; Incubated with 5 mM ATP before size-exclusion chromatography; the atomic model covers residues 29 to 777; also called mutant Drg1; double mutant Drg1; source: E. coli Transetta (DE3), purified (Ni-NTA, TEV cleavage, Mono Q, size-exclusion chromatography); not shown: His6, …

Assays:
[1] = target: the molecule itself; assay: negative-staining electron microscopy; Drg1 hexamers assembled in vitro with ADP, AMPPNP, ADP/AMPPNP/benzo-diazaborine or ATP/benzo-diazaborine; 0.02 mg/mL, 2% uranyl acetate, carbon-coated copper grids
[2] = target: the molecule itself; assay: cryo-EM structure; Drg1 E346Q/E617Q with ATP; GraFix (glycerol gradient with 0-0.05% glutaraldehyde); 50 mM HEPES-KOH pH 6.8, 150 mM KCl, 5 mM MgCl2, 1 mM DTT, 1 mM nucleotide; protomer with protomer in the hexamer

| Protein | stoichiometry N [1] | stoichiometry N [2] |
| --- | --- | --- |
| B1 | 6 | – |
| B2 | – | 6 |
